Results reported in paper PMC5063977 (The Journal of Biological Chemistry, 2016).

Experiments:
[1] = molecular target: RAMP1-CLR heterodimer expressed in S. cerevisiae (human) (UniProt Q16602)
[2] = molecular target: RAMP2-CLR heterodimer expressed in S. cerevisiae (human) (UniProt Q16602)
[3] = molecular target: RAMP3-CLR heterodimer expressed in S. cerevisiae (human) (UniProt Q16602)
[4] = molecular target: RAMP1-CLR complex expressed in HEK-293 cells (human) (UniProt Q16602)
[5] = molecular target: RAMP2-CLR complex expressed in HEK-293 cells (human) (UniProt Q16602)
[6] = molecular target: RAMP3-CLR complex expressed in HEK-293 cells (human) (UniProt Q16602)
[7] = molecular target: RAMP1-CLR complex expressed in HEK-293 cells (human) (UniProt Q16602); remark: listed apart in the source
[8] = molecular target: RAMP2-CLR complex expressed in HEK-293 cells (human) (UniProt Q16602); remark: listed apart in the source
[9] = molecular target: RAMP3-CLR complex expressed in HEK-293 cells (human) (UniProt Q16602); remark: listed apart in the source
[10] = molecular target: RAMP1-CLR complex expressed in HEK-293S cells (human) (UniProt Q16602)
[11] = molecular target: RAMP2-CLR complex expressed in HEK-293S cells (human) (UniProt Q16602)
[12] = molecular target: RAMP3-CLR complex expressed in HEK-293S cells (human) (UniProt Q16602)
[13] = molecular target: RAMP1-CLR complex expressed in HEK-293 cells (human) (UniProt Q16602); remark: listed apart in the source
[14] = molecular target: RAMP1-CLR complex expressed in HEK-293S cells (human) (UniProt Q16602); remark: listed apart in the source
[15] = molecular target: RAMP2-CLR complex expressed in HEK-293 cells (human) (UniProt Q16602); remark: listed apart in the source
[16] = molecular target: RAMP2-CLR complex expressed in HEK-293S cells (human) (UniProt Q16602); remark: listed apart in the source
[17] = molecular target: RAMP3-CLR complex expressed in HEK-293 cells (human) (UniProt Q16602); remark: listed apart in the source
[18] = molecular target: RAMP3-CLR complex expressed in HEK-293S cells (human) (UniProt Q16602); remark: listed apart in the source
[19] = tested on: RAMP-CLR complexes (RAMP1, RAMP2, RAMP3); test: (Ca^2+)i mobilization with inhibitor pretreatment, HEK-293 cells, all RAMP-CLR complexes; assay type: cell-based, human; conditions: HEK-293, any RAMP-CLR complex
Description: FIGURE 8. CLR in combination with each RAMP generates receptors that mobilize (Ca^2+)i release when expressed in HEK-293 cells. (Ca^2+)i mobilization was determined from HEK-293 cells transiently transfected with CLR and RAMP1 (n = 5) (A), RAMP2 (n = 5) (B), and RAMP3 (n = 5) (C). […] Data are expressed as percentage of the maximal (Ca^2+)i release as determined using 10 μM ionomycin. To determine the contribution made by different G proteins to the (Ca^2+)i response, cells were preincubated with either PTX (to inhibit Gαi) or YM-254890 (a selective Gαq inhibitor). All values are means ± S.E. of n individual data sets.
HEK-293 cells, provided by Dr. Jügen Müller (University of Aston), were cultured in DMEM supplemented with 10% heat-inactivated FBS and kept at 37 °C in a humidified 95% air, 5% CO2 incubator. HEK-293S cells (a gift from AstraZeneca) were cultured in DMEM supplemented with 8% heat-inactivated FBS and kept at 37 °C in a humidified 95% air, 5% CO2 incubator. HEK-293 cells were transfected with FuGENE 6 (Roche Applied Science) in accordance with the manufacturer's instructions using a 1:3 (w:v) DNA:FuGENE ratio and a 1:1 ratio of RAMP to CLR. HEK-293S cells were seeded into 96-well poly-D-lysine-coated plates at a density of 15,000 cells/well (determined using a Countess^TM cell counter, Invitrogen) 1 day prior to transfection. HEK-293S cells were transiently transfected as described previously ([38]) using a 1:1 ratio of RAMP to CLR. The transfected cell lines were grown for 24–48 h prior to assaying.
Transfected HEK-293 cells were grown to confluence in black, clear bottomed, 96-well plates. […] Ligands were added robotically using a Mithras LB 940 multimode microplate reader in the range of 10 pM to 1 μM, and fluorescence was determined immediately post-injection with an excitation wavelength set to 485 nm and an emission wavelength set to 535 nm. […] Peak magnitude was calculated using five-point smoothing followed by correction against background fluorescence. […]

Sequence of RAMP2-CLR complex expressed in HEK-293 cells (human) (Q16602 23-461, chain 1 of 2): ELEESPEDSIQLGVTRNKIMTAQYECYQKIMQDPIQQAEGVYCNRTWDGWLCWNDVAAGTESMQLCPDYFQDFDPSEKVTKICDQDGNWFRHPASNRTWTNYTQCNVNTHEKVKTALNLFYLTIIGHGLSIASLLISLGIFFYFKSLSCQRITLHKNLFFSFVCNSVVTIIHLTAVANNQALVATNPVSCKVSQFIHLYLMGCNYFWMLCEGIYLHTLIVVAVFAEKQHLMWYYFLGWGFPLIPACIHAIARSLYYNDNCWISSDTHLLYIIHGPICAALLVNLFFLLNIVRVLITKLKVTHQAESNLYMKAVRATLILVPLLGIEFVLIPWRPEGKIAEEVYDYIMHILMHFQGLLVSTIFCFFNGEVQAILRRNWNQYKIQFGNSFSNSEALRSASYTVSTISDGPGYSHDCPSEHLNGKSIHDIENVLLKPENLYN
Sequence of RAMP2-CLR complex expressed in HEK-293 cells (human) (O60895 43-175, chain 2 of 2, further chain): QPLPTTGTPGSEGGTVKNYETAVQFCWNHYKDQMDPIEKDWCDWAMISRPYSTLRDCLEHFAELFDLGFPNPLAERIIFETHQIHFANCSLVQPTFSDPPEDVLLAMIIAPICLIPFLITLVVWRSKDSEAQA
Sequence of RAMP1-CLR complex expressed in HEK-293S cells (human) (Q16602 23-461, chain 1 of 2): as the sequence (Q16602 23-461, chain 1 of 2) above
Sequence of RAMP1-CLR complex expressed in HEK-293S cells (human) (O60894 27-148, chain 2 of 2, further chain): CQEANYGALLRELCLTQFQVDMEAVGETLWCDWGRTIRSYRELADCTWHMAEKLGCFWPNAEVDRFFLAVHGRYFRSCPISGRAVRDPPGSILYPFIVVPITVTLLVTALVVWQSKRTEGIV
Sequence of RAMP3-CLR complex expressed in HEK-293S cells (human) (Q16602 23-461, chain 1 of 2): as the sequence (Q16602 23-461, chain 1 of 2) above
Sequence of RAMP3-CLR complex expressed in HEK-293S cells (human) (O60896 24-148, chain 2 of 2, further chain): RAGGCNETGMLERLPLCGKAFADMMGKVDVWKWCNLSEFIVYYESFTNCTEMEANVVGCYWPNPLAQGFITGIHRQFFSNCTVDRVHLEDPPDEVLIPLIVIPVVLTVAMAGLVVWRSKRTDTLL
Sequence of RAMP3-CLR heterodimer expressed in S. cerevisiae (human) (Q16602 23-461, chain 1 of 2): as the sequence (Q16602 23-461, chain 1 of 2) above
Sequence of RAMP3-CLR heterodimer expressed in S. cerevisiae (human) (O60896 24-148, chain 2 of 2, further chain): as the sequence (O60896 24-148, chain 2 of 2, further chain) above
Sequence of RAMP3-CLR complex expressed in HEK-293 cells (human) (Q16602 23-461, chain 1 of 2): as the sequence (Q16602 23-461, chain 1 of 2) above
Sequence of RAMP3-CLR complex expressed in HEK-293 cells (human) (O60896 24-148, chain 2 of 2, further chain): as the sequence (O60896 24-148, chain 2 of 2, further chain) above
Sequence of RAMP1-CLR complex expressed in HEK-293 cells (human) (Q16602 23-461, chain 1 of 2): as the sequence (Q16602 23-461, chain 1 of 2) above
Sequence of RAMP1-CLR complex expressed in HEK-293 cells (human) (O60894 27-148, chain 2 of 2, further chain): as the sequence (O60894 27-148, chain 2 of 2, further chain) above
Sequence of RAMP2-CLR complex expressed in HEK-293S cells (human) (Q16602 23-461, chain 1 of 2): as the sequence (Q16602 23-461, chain 1 of 2) above
Sequence of RAMP2-CLR complex expressed in HEK-293S cells (human) (O60895 43-175, chain 2 of 2, further chain): as the sequence (O60895 43-175, chain 2 of 2, further chain) above
Sequence of RAMP1-CLR heterodimer expressed in S. cerevisiae (human) (Q16602 23-461, chain 1 of 2): as the sequence (Q16602 23-461, chain 1 of 2) above
Sequence of RAMP1-CLR heterodimer expressed in S. cerevisiae (human) (O60894 27-148, chain 2 of 2, further chain): as the sequence (O60894 27-148, chain 2 of 2, further chain) above
Sequence of RAMP2-CLR heterodimer expressed in S. cerevisiae (human) (Q16602 23-461, chain 1 of 2): as the sequence (Q16602 23-461, chain 1 of 2) above
Sequence of RAMP2-CLR heterodimer expressed in S. cerevisiae (human) (O60895 43-175, chain 2 of 2, further chain): as the sequence (O60895 43-175, chain 2 of 2, further chain) above

Substance: hAM (peptide)
- pEC50, yeast growth reporter, GPA1/Gαi chimera strain [1]: 8.38 -log10
- pEC50, yeast growth reporter, GPA1/Gαq chimera strain [1]: 7.26 -log10
- pEC50, yeast growth reporter, GPA1/Gαs chimera strain [1]: 8.8 -log10
- pKa (operational model of agonism), yeast growth reporter, GPA1/Gαi chimera strain [1]: 8.2 -log10
- pKa (operational model of agonism), yeast growth reporter, GPA1/Gαq chimera strain [1]: 7.19 -log10
- pKa (operational model of agonism), yeast growth reporter, GPA1/Gαs chimera strain [1]: 8.81 -log10
- pEC50, yeast growth reporter, GPA1/Gαi chimera strain [2]: 7.91 -log10
- pEC50, yeast growth reporter, GPA1/Gαq chimera strain [2]: 7.93 -log10
- pEC50, yeast growth reporter, GPA1/Gαs chimera strain [2]: 8.82 -log10
- pKa (operational model of agonism), yeast growth reporter, GPA1/Gαi chimera strain [2]: 7.75 -log10
- pKa (operational model of agonism), yeast growth reporter, GPA1/Gαq chimera strain [2]: 7.78 -log10
- pKa (operational model of agonism), yeast growth reporter, GPA1/Gαs chimera strain [2]: 8.77 -log10
- pEC50, yeast growth reporter, GPA1/Gαi chimera strain [3]: 7.89 -log10
- pEC50, yeast growth reporter, GPA1/Gαq chimera strain [3]: 7.83 -log10
- pEC50, yeast growth reporter, GPA1/Gαs chimera strain [3]: 8.15 -log10
- pKa (operational model of agonism), yeast growth reporter, GPA1/Gαi chimera strain [3]: 8 -log10
- pKa (operational model of agonism), yeast growth reporter, GPA1/Gαq chimera strain [3]: 7.71 -log10
- pKa (operational model of agonism), yeast growth reporter, GPA1/Gαs chimera strain [3]: 8.1 -log10
- pEC50, cAMP accumulation in HEK-293 cells [4]: 7.92 -log10
- pKa (operational model of agonism), cAMP accumulation in HEK-293 cells [4]: 7.64 -log10
- pEC50, cAMP accumulation in HEK-293 cells [5]: 10.3 -log10
- pKa (operational model of agonism), cAMP accumulation in HEK-293 cells [5]: 9.95 -log10
- pEC50, cAMP accumulation in HEK-293 cells [6]: 8.86 -log10
- pKa (operational model of agonism), cAMP accumulation in HEK-293 cells [6]: 8.5 -log10
- pEC50, cAMP accumulation in HEK-293 cells, with PTX pretreatment [7]: 8.14 -log10
- pEC50, cAMP accumulation in HEK-293 cells, without PTX [7]: 7.93 -log10
- pKa (operational model of agonism), cAMP accumulation in HEK-293 cells, with PTX pretreatment [7]: 7.66 -log10
- pKa (operational model of agonism), cAMP accumulation in HEK-293 cells, without PTX [7]: 7.67 -log10
- pEC50, cAMP accumulation in HEK-293 cells, with PTX pretreatment [8]: 10.2 -log10
- pEC50, cAMP accumulation in HEK-293 cells, without PTX [8]: 10.3 -log10
- pKa (operational model of agonism), cAMP accumulation in HEK-293 cells, with PTX pretreatment [8]: 9.83 -log10
- pKa (operational model of agonism), cAMP accumulation in HEK-293 cells, without PTX [8]: 10 -log10
- pEC50, cAMP accumulation in HEK-293 cells, with PTX pretreatment [9]: 9.1 -log10
- pEC50, cAMP accumulation in HEK-293 cells, without PTX [9]: 8.98 -log10
- pKa (operational model of agonism), cAMP accumulation in HEK-293 cells, with PTX pretreatment [9]: 8.94 -log10
- pKa (operational model of agonism), cAMP accumulation in HEK-293 cells, without PTX [9]: 8.83 -log10
- pEC50, cAMP accumulation in HEK-293S cells, with PTX pretreatment [10]: 8.03 -log10
- pEC50, cAMP accumulation in HEK-293S cells, without PTX [10]: 8.13 -log10
- pEC50, cAMP accumulation in HEK-293S cells, with PTX pretreatment [11]: 9.38 -log10
- pEC50, cAMP accumulation in HEK-293S cells, without PTX [11]: 9.39 -log10
- pEC50, cAMP accumulation in HEK-293S cells, with PTX pretreatment [12]: 9.49 -log10
- pEC50, cAMP accumulation in HEK-293S cells, without PTX [12]: 9.63 -log10
- pEC50, (Ca^2+)i mobilization in HEK-293 cells [13]: 7.9 -log10
- pKa (operational model of agonism), (Ca^2+)i mobilization in HEK-293 cells [13]: 7.69 -log10
- pEC50, (Ca^2+)i mobilization in HEK-293S cells [14]: 7.63 -log10
- pKa (operational model of agonism), (Ca^2+)i mobilization in HEK-293S cells [14]: 7.42 -log10
- pEC50, (Ca^2+)i mobilization in HEK-293 cells [15]: 7.86 -log10
- pKa (operational model of agonism), (Ca^2+)i mobilization in HEK-293 cells [15]: 7.45 -log10
- pEC50, (Ca^2+)i mobilization in HEK-293S cells [16]: 7.68 -log10
- pKa (operational model of agonism), (Ca^2+)i mobilization in HEK-293S cells [16]: 7.39 -log10
- pEC50, (Ca^2+)i mobilization in HEK-293 cells [17]: 8.12 -log10
- pKa (operational model of agonism), (Ca^2+)i mobilization in HEK-293 cells [17]: 7.76 -log10
- pEC50, (Ca^2+)i mobilization in HEK-293S cells [18]: 8.02 -log10
- pKa (operational model of agonism), (Ca^2+)i mobilization in HEK-293S cells [18]: 8.56 -log10

Substance: pertussis toxin [PTX]
- effect of PTX on calcium released in response to the three ligands [19]: no effect
